{"source": "paper PMC5650642", "key": {"[1]": {"molecular_target": "T1, His-OpaR (Vibrio parahaemolyticus RIMD2210633) (UniProt Q79YV4)", "T1 sequence": "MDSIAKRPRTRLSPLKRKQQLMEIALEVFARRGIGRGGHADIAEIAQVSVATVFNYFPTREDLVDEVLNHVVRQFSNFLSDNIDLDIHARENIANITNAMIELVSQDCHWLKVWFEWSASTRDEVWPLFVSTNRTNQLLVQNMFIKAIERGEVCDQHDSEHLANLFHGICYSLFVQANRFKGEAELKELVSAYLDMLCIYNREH", "assay": "DNase I footprinting"}, "[2]": {"molecular_target": "His-ToxR (Vibrio parahaemolyticus RIMD2210633) (UniProt Q05938)", "sequence (Q05938 1-176)": "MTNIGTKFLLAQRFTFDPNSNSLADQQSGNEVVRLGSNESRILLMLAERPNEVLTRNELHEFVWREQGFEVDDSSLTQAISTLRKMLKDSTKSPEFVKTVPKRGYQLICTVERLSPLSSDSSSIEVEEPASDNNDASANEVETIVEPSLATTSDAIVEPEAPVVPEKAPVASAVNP", "assay": "DNase I footprinting"}}}
{"sequence": "ACACTTTGCACTCTTTTATGGAACAAATATTATTAGACCGAAATAATATTTGCTGAAACATCCTTGTTTCAAGGGTAGTATTTAAAACGAACAGTAAGCCTATTATTTTAGTTATAATTACTAAGTTATTAGACTCTTTGACTTACGCTTTCACTACCTGAATTACGTTGTTTTAGAAATTAAAATTTCAACAACGTAATATGACTTCATTTTCATTATATATTTCGACAAAGAATGATTAGCACGC (double strand) [VP1400 footprinting fragment]", "values": [{"measurement": "binding", "setting": "[1]", "result": "binds"}, {"measurement": "binding", "setting": "[2]", "result": "binds"}]}
{"sequence": "ATTCTCCACAACCAACATCGTAAACATGGTTGCGGTGACGTTTAAGCTGATAAGGCTTACAAGTACGATTTGGTGTGCTAATGCTACTAATTTAATTCATAACATTCAATCACATAGAAAACTTCCAGAAAACCGAAATGCCCGAGAAATAACAAAACCACAGGTTATTTGGTTGTTTTAACTATCAATTCAAACTTATTACCCTTCAATCCAACTCAAAAGGCAGGCTTTAAGCAAAAACAGTTTTTTACTTTTGGGCAGAAGTTAACAAATTCAA (double strand) [VP1388 footprinting fragment]", "values": [{"measurement": "binding", "setting": "[1]", "result": "binds"}]}
{"sequence": "CGCTTGGATTACTTTCATCGATCGGTCTTCTTGTGAAGTCGCTGAAAAACATAATGTTAAGTTCCAACTGAGTTGATAATAAAATAATAAAGATAGATTTTTTTATTGTATTCGCCTGCTATGCCAAATGACATGCAATGCATTTTTTCTGATTTTATAGATAAAAAAAGATTTTTAGACAATAAAAAGCCGATAAATCTAATTAAAATCCATTTTGTGTGATCTTTGTTCCTAAT (double strand) [VP1409 footprinting fragment(s)]", "values": [{"measurement": "binding", "setting": "[1]", "result": "binds"}, {"measurement": "binding", "setting": "[2]", "result": "binds"}]}
